Values joined by “and” are separate entries in the source; they are usually repeats but may differ in a detail not shown here. Identical values can stand only once.
T1: human soluble IL-6R (human, UniProt P08887 20-357)
T1 sequence: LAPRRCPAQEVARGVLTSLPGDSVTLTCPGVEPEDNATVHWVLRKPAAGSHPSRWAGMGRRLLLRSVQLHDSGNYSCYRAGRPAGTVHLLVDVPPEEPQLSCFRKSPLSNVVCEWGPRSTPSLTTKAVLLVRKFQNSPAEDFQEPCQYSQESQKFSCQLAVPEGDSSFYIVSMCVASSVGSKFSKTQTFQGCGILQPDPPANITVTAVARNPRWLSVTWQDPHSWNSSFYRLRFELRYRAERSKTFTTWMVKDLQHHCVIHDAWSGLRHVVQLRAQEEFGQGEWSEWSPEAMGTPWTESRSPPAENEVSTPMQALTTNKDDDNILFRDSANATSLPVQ

T2: human membrane-bound IL-6R subunit alpha (human, UniProt P08887 20-468)
T2 sequence: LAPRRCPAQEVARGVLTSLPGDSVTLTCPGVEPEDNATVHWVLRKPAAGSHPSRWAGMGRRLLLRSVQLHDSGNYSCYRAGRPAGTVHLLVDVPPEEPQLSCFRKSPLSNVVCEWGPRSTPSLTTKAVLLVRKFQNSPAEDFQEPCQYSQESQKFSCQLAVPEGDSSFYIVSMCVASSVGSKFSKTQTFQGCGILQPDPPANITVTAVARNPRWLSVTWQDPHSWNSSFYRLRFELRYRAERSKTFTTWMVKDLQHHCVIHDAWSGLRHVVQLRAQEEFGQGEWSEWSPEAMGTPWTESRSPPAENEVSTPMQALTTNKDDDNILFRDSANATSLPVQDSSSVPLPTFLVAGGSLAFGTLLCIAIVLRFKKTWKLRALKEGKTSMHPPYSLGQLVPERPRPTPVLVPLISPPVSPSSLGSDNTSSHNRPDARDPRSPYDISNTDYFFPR

T3: human membrane-bound IL-6R subunit alpha (human, UniProt P08887 20-468)
T3 sequence: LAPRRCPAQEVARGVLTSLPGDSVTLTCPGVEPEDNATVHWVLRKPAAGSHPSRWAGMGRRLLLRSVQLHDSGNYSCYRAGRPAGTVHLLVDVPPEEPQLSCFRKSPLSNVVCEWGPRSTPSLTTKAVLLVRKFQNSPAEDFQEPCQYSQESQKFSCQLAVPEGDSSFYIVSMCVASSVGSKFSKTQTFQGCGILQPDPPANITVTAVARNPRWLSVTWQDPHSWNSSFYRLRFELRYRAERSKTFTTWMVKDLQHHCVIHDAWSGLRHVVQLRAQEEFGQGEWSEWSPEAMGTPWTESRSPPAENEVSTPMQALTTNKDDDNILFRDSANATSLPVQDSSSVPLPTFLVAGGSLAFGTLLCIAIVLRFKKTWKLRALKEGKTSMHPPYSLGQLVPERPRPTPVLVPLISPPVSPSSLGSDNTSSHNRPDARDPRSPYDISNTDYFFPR

T4: mouse membrane-bound IL-6R subunit alpha (mouse, UniProt P22272 20-460)
T4 sequence: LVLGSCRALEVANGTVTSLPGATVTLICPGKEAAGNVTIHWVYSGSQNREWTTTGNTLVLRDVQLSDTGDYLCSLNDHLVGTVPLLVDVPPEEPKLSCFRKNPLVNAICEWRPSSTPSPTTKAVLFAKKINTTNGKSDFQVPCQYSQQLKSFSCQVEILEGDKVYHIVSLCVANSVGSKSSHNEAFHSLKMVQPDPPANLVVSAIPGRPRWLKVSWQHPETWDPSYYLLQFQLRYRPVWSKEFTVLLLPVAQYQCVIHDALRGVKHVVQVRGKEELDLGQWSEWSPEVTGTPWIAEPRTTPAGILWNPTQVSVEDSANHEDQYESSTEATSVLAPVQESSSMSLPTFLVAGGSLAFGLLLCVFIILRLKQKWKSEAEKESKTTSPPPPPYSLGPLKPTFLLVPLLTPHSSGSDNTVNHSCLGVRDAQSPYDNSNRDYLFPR

T5: murine soluble IL-6R (mouse, UniProt P22272 20-347, limits assumed)
T5 sequence: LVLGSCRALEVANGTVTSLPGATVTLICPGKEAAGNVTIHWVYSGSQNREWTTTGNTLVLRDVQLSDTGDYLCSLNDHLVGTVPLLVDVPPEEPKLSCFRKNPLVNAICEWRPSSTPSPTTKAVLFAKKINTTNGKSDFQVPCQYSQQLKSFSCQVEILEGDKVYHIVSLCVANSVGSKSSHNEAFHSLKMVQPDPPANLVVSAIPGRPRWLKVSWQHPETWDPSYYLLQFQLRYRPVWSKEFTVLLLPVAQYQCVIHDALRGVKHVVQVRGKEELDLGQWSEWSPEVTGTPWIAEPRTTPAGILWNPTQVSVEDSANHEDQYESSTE

T6: human soluble IL-6R (human, UniProt P08887 20-357, limits assumed)
T6 sequence: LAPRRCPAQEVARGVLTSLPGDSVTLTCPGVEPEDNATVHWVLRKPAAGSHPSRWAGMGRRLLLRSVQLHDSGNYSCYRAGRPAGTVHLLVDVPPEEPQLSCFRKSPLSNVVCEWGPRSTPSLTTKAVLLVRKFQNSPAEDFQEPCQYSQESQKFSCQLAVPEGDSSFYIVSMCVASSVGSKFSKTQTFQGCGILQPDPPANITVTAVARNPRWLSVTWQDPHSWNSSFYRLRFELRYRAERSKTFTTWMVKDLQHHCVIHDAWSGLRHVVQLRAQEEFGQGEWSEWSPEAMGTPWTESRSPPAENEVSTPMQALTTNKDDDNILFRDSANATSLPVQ


Key:
Experiment in all cases: cell-based or functional assay
[1] = target: T1, human soluble IL-6R
[2] = target: T2, human membrane-bound IL-6R subunit alpha
[3] = target: T3, human membrane-bound IL-6R subunit alpha; remark: listed apart in the source
[4] = target: T4, mouse membrane-bound IL-6R subunit alpha
[5] = target: T4, mouse membrane-bound IL-6R subunit alpha; remark: listed apart in the source
[6] = target: T3, human membrane-bound IL-6R subunit alpha; remark: listed apart in the source
[7] = target: T5, murine soluble IL-6R
[8] = target: Hyper-IL-6 (recombinant fusion protein consisting of IL-6 and soluble IL-6R)
[9] = target: T3, human membrane-bound IL-6R subunit alpha; remark: listed apart in the source
[10] = target: T3, human membrane-bound IL-6R subunit alpha; remark: listed apart in the source
[11] = target: T6, human soluble IL-6R
[12] = target: T6, human soluble IL-6R; remark: listed apart in the source
[13] = target: T3, human membrane-bound IL-6R subunit alpha; remark: listed apart in the source

Proliferation in % (Ba/F3_gp130 cells, IL-6 + sIL-6R = 100%; IL-6 trans signalling) at IgG 10 ng/ml [1] [%] | Proliferation in % (Ba/F3_gp130 cells, IL-6 + sIL-6R = 100%; IL-6 trans signalling) at IgG 100 ng/ml [1] [%] | Proliferation in % (Ba/F3_gp130 cells, IL-6 + sIL-6R = 100%; IL-6 trans signalling) at IgG 300 ng/ml [1] [%] | Proliferation in % (Ba/F3_gp130 cells, IL-6 + sIL-6R = 100%; IL-6 trans signalling) at IgG 500 ng/ml [1] [%] | Proliferation in % (Ba/F3_gp130 cells, IL-6 + sIL-6R = 100%; IL-6 trans signalling) at IgG 700 ng/ml [1] [%] | Proliferation in % (Ba/F3_gp130 cells, IL-6 + sIL-6R = 100%; IL-6 trans signalling) at IgG 1,000 ng/ml [1] [%] | Proliferation in % (Ba/F3_gp130 cells, IL-6 + sIL-6R = 100%; IL-6 trans signalling) at IgG 10,000 ng/ml [1] [%] | IC50 for the inhibition of IL-6 classical signalling-induced proliferation (Ba/F3_gp130_IL-6R cells + IL-6) [2] [µg/mL] | IC50 for the inhibition of IL-6 mixed signalling-induced proliferation (Ba/F3_gp130_IL-6R cells + IL-6 + sIL-6R) [2] | Binder | further results
98.8 | 92.2 | 78.3 | 70.2 | 55.3 | 41.2 | 9.6 | > 10 | > 10 µg/ml and > 53 nM | anti-IL-6R IgG antibody C07 (antibody, V domains shown) VH: EVKLVESGGGLVQPGGSLKLSCAASGFTFSSYAMSWVRQTADKRLELVANINSNGGSTYYPDSVKGRFTISRDNAKNTLFLQMSSLKSEDTAMYYCAREGYYTMDYWGQGTSVTVSS VL: DIVLTQSPASLAVSPGQRATISCRASESVDSYGNSFMNWYQQKPGQPPKLLIYLASNLESGVPARFSGSGSRTDFTLTIDPVEADDAATYYCQQNNEDPYTFGGGTKLEIK | 
 |  |  |  |  |  |  |  |  | anti-IL-6R IgG antibody 07 (C07 antibody, Fab chimerized with human IgG1) (antibody, V domains shown) VH: EVKLVESGGGLVQPGGSLKLSCAASGFTFSSYAMSWVRQTADKRLELVANINSNGGSTYYPDSVKGRFTISRDNAKNTLFLQMSSLKSEDTAMYYCAREGYYTMDYWGQGTSVTVSS VL: DIVLTQSPASLAVSPGQRATISCRASESVDSYGNSFMNWYQQKPGQPPKLLIYLASNLESGVPARFSGSGSRTDFTLTIDPVEADDAATYYCQQNNEDPYTFGGGTKLEIK | Proliferation in % of Ba/F3_gp130_IL-6R cells with 10 ng/ml IL-6 and 200 ng/ml sIL-6R (mixed signalling), IgG at 1 µg/ml [3]: 93%; Proliferation in % of Ba/F3_gp130_IL-6R cells with 10 ng/ml IL-6 and 200 ng/ml sIL-6R (mixed signalling), IgG at 10 µg/ml [3]: 85.9%; Proliferation in % of Ba/F3_gp130_muIL-6R cells (10 ng/ml murine IL-6 + 200 ng/ml murine soluble IL-6R = 100%, mixed signalling), IgG at 10 µg/ml [4]: 108%; Proliferation in % of Ba/F3_gp130_muIL-6R cells (10 ng/ml murine IL-6 = 100%), IgG at 10 µg/ml [5]: 101%; IC50 for inhibition of IL-6 classical signalling-induced proliferation [6]: > 53 nM; Proliferation in % of Ba/F3_gp130 cells (10 ng/ml murine IL-6 + 200 ng/ml murine soluble IL-6R = 100%), IgG at 10 µg/ml [7]: 104%; IC50 of inhibition of proliferation of Ba/F3_gp130 cells induced by 28 ng/ml Hy-IL-6 [8]: 644 ng/ml and 4.3 nM; STAT3 phosphorylation in % in HEK293_IL-6R cells (10 ng/ml IL-6 + 200 ng/ml sIL-6R = 100%, mixed signalling), IgG at 1 µg/ml [9]: 105%; STAT3 phosphorylation in % in HEK293_IL-6R cells (10 ng/ml IL-6 for 30 min = 100%), IgG at 1 µg/ml [10]: 86.2%; IC50 of inhibition of proliferation of Ba/F3_gp130 cells induced by 10 ng/ml IL-6 and 200 ng/ml sIL-6R [11]: 757 ng/ml and 5 nM; STAT3 phosphorylation in % in HEK293 cells (10 ng/ml IL-6 + 200 ng/ml sIL-6R for 30 min = 100%), IgG at 1 µg/ml [12]: 2.8%; Proliferation in % of Ba/F3_gp130_IL-6R cells (10 ng/ml IL-6 = 100%), IgG at 1 µg/ml [13]: 92%; Proliferation in % of Ba/F3_gp130_IL-6R cells (10 ng/ml IL-6 = 100%), IgG at 10 µg/ml [13]: 90.8%
103 | 88.5 | 84.8 | 52.8 | 36.1 | 16.3 | 6.5 | > 10 | > 10 µg/ml and > 53 nM | anti-IL-6R IgG antibody C20 (antibody, V domains shown) VH: EVKLMESGGGLVQPGGSLKLSCAASGFTFSNYGMSWVRQTPDKRLELVAIINSNGGSTYYPDSVKGRFTISRDNAKNTLYLQMSSLKSEDTAIYYCARDGNFVSDYWGQGTTLTVSS VL: DIVLTQSPASLAVSLGQRATISCRASESVDSYGNRFLNWYQQKPGQPPKLLIYLASNLESGVPARFSGSGSRTDFTLTIDPVEADDAATYYCQQNNEDPYTFGGGTKLEIK | 
99.2 | 92.2 | 88.5 | 78.3 | 72.3 | 57.7 | 10.8 | > 10 | > 10 µg/ml and > 53 nM | anti-IL-6R IgG antibody C19 (antibody, V domains shown) VH: EVKLMESGGGLVQPGGSLKLSCAASGFTFSNYGMSWVRQTPDKRLELVAIMNSKGGSTYYPDSVMGRFTISRDNAKNTLYLQMSSLKSEDTAMYYCARDGYYTMDYWGQGTSVTVSS VL: DIVLTQSPASLAVSLGQRATISCRASKSVDSFGNSFMHWYQQKPGQSPRLLIFLASNLESGVPARFSGSGSRTDFTLTIDPVEADDAATYYCQQNNEDPYTFGGGTKLEIK | 
101 | 98.9 | 89.1 | 75.3 | 66.9 | 48.1 | 11.6 | > 10 | > 10 µg/ml and > 53 nM | anti-IL-6R IgG antibody C12 (antibody, V domains shown) VH: EVKLMESGGGLVQPGGSLKLSCAASGFTFSNYGMSWVRQTPDKRLEWVANINSNGGSTYYPDSVKGRFTISRDNAQNTLYLQMSSLKSEDTAMYYCTRDGNFVSDYWGQGTTLTVSS VL: DIVLTQSPASLAVSPGQRATISCRASESVDSYGNSFMNWYQQKPGQPPKLLIYLASNLESGVPARFSGSGSRTDFTLTIDPVEADDAATYYCQQNNEDPYTFGGGTKLEIK | 
98.2 | 93.1 | 88.3 | 82.6 | 82.5 | 72.9 | 25.8 | > 10 | > 10 µg/ml and > 53 nM | anti-IL-6R IgG antibody C09 (antibody, V domains shown) VH: EVQLVESGGDLVQPGGSLKLSCAASGFTFSNYGMSWVRQTPDKRLELVAAINSNGGSTYYPDSVKGRFTISRDNAKNTLYLQMSSLKSEDTAMYYCARDGNYVSDYWGQGTTLTVSS VL: DIVLTQSPASLAVSLGQRATISCRASESVDSYGNSFMHWYQQKPGQPPKLLIYLASNLESGVPARFSGSGSRTDFTLTIDPVEADDAATYYCQQNNEDPWTFGGGTKLEIK | 

Reference: US20260226179A1 (MAB DESIGNS, published 2026)
